Assay results: patent US20080044436A1, “Method for Screening and Compositions for Treating Cancers” (priority 2004, published 2008)

What was measured:
cyclin A/CDK2 = assay: In vitro kinase assay of immunoprecipitated cyclin A/CDK2 (histone H1 substrate); assay type: biochemical, human; conditions: TReP-132 induced for 48 hours in HTO-GFP/TReP-132 cells
Text: FIG. 9A: Kinase activities of each immunoprecipitated cyclin or CDK were quantified using pRb as substrate to measure cyclin D1/CDK6 activity, or histone H1 to measure cyclin A/CDK2 activity. The levels of phosphorylation of histone H1 or pRb in induced HTO cells (HeLa Tet Off) are expressed in relation to the levels in non-induced HTO cells (corresponding to level 1.0).
Cells were washed twice with cold PBS (Phosphate Buffered Saline), then harvested either in cold RIPA buffer (1×PBS, 1% Nonidet P-40, 0.5% sodium deoxycholate, 0.1% SDS, phosphatase and protease inhibitors) for co-immunoprecipitation analysis, or in lysis buffer (50 mM Tris, pH 8.0, 0.1% IGEPAL (Sigma)) for kinase assays. […] The blots were then visualized with ECL reagent and quantified with SCANWISE and Perfect-IMAGE V-5.3 software (CLARA VISION, France).
The kinase activities on histone H1 or Rb protein in the immunoprecipitates were measured as follows: the immunoprecipitates were first washed once with 1 ml of assay buffer (50 mM Tris-HCl, pH 7.4, 10 mM MgCl2, 1 mM dithiothreitol (DTT)), then resuspended in 20 μl of assay buffer containing 1 mg/ml casein (Sigma) and 1 μg of histone H1 or Rb protein (769) (sc-4112) as substrate. […]
The reaction was stopped by addition of 15 μl of electrophoresis buffer (3×). […] Phosphorylated Rb and histones were quantified by densitometry.

p27 promoter = assay: Luciferase reporter assay in HeLa cells, p27 promoter; assay type: cell-based, human; conditions: 0.3 μg TReP-132 expression vector, dose-dependent
Description: The pGL2 and pGL3 reporter constructs (100 ng) were cotransfected with the indicated amounts of expression vectors and 10 ng of the control plasmid pRL.Null. The amount of plasmid was then normalized with the empty vector pcDNA3. After 12 hours of transfection, the medium was changed and cells were incubated for an additional 10 and 34 hours, respectively. During this period, T47-D cells were cultured in the presence and absence of progesterone (30 nM). The cells were then harvested and cell lysates (20 μl) were assayed for luciferase activity (Dual Luciférase™ Reporter Assay System, Promega, Madison, Wis., USA) in a Berthold LUMAT LB9501 luminometer. The transfections were performed in triplicate and each experiment was repeated at least three times.
TReP-132 activation of the p21, p27 and p16 cyclin kinase inhibitor promoters was studied by transfection of HeLa and T47-D cells. HeLa cells were seeded in 24-well plates at an initial density of 15,000 cells per well and transfected the next day with ExGen 500 (MBI Fermentas, Flamborough, Ontario, Canada) at a ratio of 4 μl of ExGen 500 per 0.5 μg DNA. T47-D cells were seeded at a density of 100,000 cells per well and transfected the next day with FuGENE 6 reagent (Roche Molecular Biochemicals, Laval, Canada), at a ratio of 3 μl of FuGENE per 1 μg of DNA. […]

p16^INK4 gene = assay: RNase protection assay of CDKI transcription in HeLa cells, p16; assay type: cell-based, human; conditions: HeLa Tet-off cells, doxycycline removed

B1: TReP-132: Transcriptional Regulating Protein of 132 kDa, polypeptide comprising SEQ ID NO: 2; here expressed in cells from vectors (protein)
chain: MGDQQLYKTNHVAHGSENLFYQQPPLGVHSGLNHNYGNAVTGGGMDAPQASPISPHFPQDTRDGLGLPVGSKNLGQMDTSRQGGWGSHAGPGNHVQLRGNLANSNMMWGAPAQAEPTDGYQYTYSQASEIRTQKLTSGVLHKLDSFTQVFANQNLRIQVNNMAQVLHTQSAVMDGAPDSALRQLLSQKPMEPPAPAIPSRYQQVPQQPHPGFTGGLSKPALQVGQHPTQGHLYYDYQQPLAQVPVQGGQPLQAPQMLSQHMQQMQQHQYYPPQQQQQAGQQRISMQEIQTQPQQIRPSQPQPPPQQQQPQQLQLQQRQGSMQIPQYYQPQPMMQHLQEQQQQQMHLQPPSYHRDPHQYTPEQAHTVQLIPLGSMSQYYYQEPQQPYSHPLYQQSHLSQHQQREDSQLKTYSSDRQAQAMLSSHGDLGPPDTGMGDPASSDLTRVSSTLPHRPLLSPSGIHLNNMGPQHQQLSPSAMWPQMHLPDGRAQPGSPESSGQPKGAFGEQFDAKNKLTCSICLKEFKNLPALNGHMRSHGGMRASPNLKQEEGEKVLPPQPQPPLPPPPPPPPPPQLPPEAESLTPMVMPVSVPVKLLPPKPSSQGFTNSTVAAPSARDKPASSMSDDEMPVLEIPRKHQPSVPKAEEPLKTVQEKKKFRHRPEPLFIPPPPSYNPNPAASYSGATLYQSQLRSPRVLGDHLLLDPTHELPPYTPPPMLSPVRQGSGLFSNVLISGHGPGAHPQLPLTPLTPTPRVLLCRSNSIDGSNVTVTPGPGEQTVDVEPRINIGLRFQAEIPELQDISALAQDTHKATLVWKPWPELENHDLQQRVENLLNLCCSSALPGGGTNSEFALHSLFEAKGDVMVALEMLLLRKPVRLKCHPLANYHYAGSDKWTSLERKLFNKALATYSKDFIFVQKMVKSKTVAQCVEYYYTWKKIMRLGRKHRTRLAEIIDDCVTSEEEEELEEEEEEDPEEDRKSTKEEESEVPKSPEPPPVPVLAPTEGPPLQALGQPSGSFICEMPNCGAVFSSRQALNGHARIHGGTNQVTKARGAIPSGKQKPGGTQSGYCSVKSSPSHSTTSGETDPTTIFPCKECGKVFFKIKSRNAHMKTHRQQEEQQRQKAQKAAFAAEMAATIERTTGPVGAPGLLPLDQLSLIKPIKDVDILDDDVVQQLGGVMEEAEVVDTDLLLDDQDSVLLQGDAEL
in vitro kinase activity of cyclin A/CDK2 (cyclin A/CDK2): reduced | p27 promoter induction (p27 promoter): approximately 7 fold | p16 gene transcription (p16^INK4 gene): induction
